Reference: paper doi:10.1101/2025.08.14.670383

Molecular target: ADGRG1_h1h2: ADGRG1 receptor bearing the designed GAIN domain SS_h1h2, on HEK293T cells (human) (UniProt Q9Y653)
UniProt Q9Y653, sequence (Q9Y653 26-693 V174C/S218C): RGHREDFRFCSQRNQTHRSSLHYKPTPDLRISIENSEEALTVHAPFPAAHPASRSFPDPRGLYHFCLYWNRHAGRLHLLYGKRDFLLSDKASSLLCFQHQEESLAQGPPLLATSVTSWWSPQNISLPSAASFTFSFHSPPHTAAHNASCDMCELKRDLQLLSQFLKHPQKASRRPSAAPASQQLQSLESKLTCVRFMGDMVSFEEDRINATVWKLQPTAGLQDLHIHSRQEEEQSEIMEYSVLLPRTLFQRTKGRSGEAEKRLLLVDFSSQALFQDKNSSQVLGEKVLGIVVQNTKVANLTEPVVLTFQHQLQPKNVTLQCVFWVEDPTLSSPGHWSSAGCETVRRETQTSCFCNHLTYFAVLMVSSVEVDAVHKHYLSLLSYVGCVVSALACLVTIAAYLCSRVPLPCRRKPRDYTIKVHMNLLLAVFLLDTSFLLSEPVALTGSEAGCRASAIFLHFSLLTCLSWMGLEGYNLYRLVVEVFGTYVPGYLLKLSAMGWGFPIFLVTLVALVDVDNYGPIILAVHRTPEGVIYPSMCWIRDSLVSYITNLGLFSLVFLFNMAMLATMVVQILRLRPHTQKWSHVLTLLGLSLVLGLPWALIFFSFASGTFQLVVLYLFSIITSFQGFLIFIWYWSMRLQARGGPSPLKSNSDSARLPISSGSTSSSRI

native human collagen III (from UniProt P02461 154-1221) (ligand)
Col3-induced increase in activity, SRE-luciferase assay in HEK293T cells: > 2 fold
